Test results published in article PMC13186709.
Residue numbers refer to the chain shown, from its start.

Columns and labels:
[1] = biological target: T1, Egalitarian (Egl);Bicaudal D (BicD) (Drosophila melanogaster;Drosophila …, UniProt Q9W1K4;P16568 1-1004;1-782, |); experiment: MST; MST: 1 nM Cy5-RNA in GF150 (25 mM HEPES pH 7.3, 150 mM KCl, 1 mM MgCl2, 0.1 mM Mg-ATP, 5 mM DTT, 10% glycerol) + 0.05% Tween-20, 15 min, room temperature; Egl-BicD conc. as 2:2 complex; settings: protein: recombinant;recombinant, tags: C-terminal TEV-ZZ (cleaved);, chain copies: 2;2, label: 5'-Cy5
[2] = biological target: T1, Egalitarian (Egl);Bicaudal D (BicD); experiment: MST; prep 4; MST: 1 nM Cy5-RNA in GF150 (25 mM HEPES pH 7.3, 150 mM KCl, 1 mM MgCl2, 0.1 mM Mg-ATP, 5 mM DTT, 10% glycerol) + 0.05% Tween-20, 15 min, room temperature; Egl-BicD conc. as 2:2 complex; settings: protein: recombinant;recombinant; tags: C-terminal TEV-ZZ (cleaved);; chain copies: 2;2; label: 5'-Cy5; hairpin
[3] = biological target: T1, Egalitarian (Egl);Bicaudal D (BicD); experiment: MST; two experiments, different preps; MST: 1 nM Cy5-RNA in GF150 (25 mM HEPES pH 7.3, 150 mM KCl, 1 mM MgCl2, 0.1 mM Mg-ATP, 5 mM DTT, 10% glycerol) + 0.05% Tween-20, 15 min, room temperature; Egl-BicD conc. as 2:2 complex; settings: protein: recombinant;recombinant; tags: C-terminal TEV-ZZ (cleaved);; chain copies: 2;2; label: 5'-Cy5; straight hairpin
[4] = biological target: T1, Egalitarian (Egl);Bicaudal D (BicD); experiment: single-molecule motility; with human dynein and pig dynactin; single RNA per motile complex; MST: 1 nM Cy5-RNA in GF150 (25 mM HEPES pH 7.3, 150 mM KCl, 1 mM MgCl2, 0.1 mM Mg-ATP, 5 mM DTT, 10% glycerol) + 0.05% Tween-20, 15 min, room temperature; Egl-BicD conc. as 2:2 complex; settings: protein: recombinant;recombinant; tags: C-terminal TEV-ZZ (cleaved);; chain copies: 2;2; label: Cy3- or Cy5-UTP; two hairpins

T1 sequence (chain, as listed by the source |, chain 1 of 2): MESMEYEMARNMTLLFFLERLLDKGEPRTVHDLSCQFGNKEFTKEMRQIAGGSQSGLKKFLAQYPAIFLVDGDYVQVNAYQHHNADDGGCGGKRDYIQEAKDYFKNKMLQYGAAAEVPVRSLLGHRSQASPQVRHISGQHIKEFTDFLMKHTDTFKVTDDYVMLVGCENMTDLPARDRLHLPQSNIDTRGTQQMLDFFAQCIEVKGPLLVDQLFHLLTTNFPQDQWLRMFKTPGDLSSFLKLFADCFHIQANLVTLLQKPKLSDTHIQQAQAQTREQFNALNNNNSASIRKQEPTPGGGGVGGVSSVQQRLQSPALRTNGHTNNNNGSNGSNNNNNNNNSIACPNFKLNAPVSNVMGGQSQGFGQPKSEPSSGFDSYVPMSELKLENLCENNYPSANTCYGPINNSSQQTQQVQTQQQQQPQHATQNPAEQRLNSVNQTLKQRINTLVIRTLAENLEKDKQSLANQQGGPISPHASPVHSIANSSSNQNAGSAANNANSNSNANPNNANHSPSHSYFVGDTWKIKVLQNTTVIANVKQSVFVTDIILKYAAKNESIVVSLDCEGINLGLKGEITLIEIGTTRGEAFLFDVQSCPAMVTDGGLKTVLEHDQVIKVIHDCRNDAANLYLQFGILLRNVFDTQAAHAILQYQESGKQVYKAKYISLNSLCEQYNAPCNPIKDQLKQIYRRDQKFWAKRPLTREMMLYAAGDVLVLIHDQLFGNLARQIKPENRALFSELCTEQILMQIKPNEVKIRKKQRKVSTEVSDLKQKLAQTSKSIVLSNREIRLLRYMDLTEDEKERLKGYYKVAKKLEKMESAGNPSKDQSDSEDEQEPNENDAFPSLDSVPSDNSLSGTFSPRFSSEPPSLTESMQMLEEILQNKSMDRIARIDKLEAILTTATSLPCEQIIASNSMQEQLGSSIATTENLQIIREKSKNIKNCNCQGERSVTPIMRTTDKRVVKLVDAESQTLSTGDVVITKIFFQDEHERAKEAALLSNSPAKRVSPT
T1 sequence (P16568 whole entry, chain 2 of 2): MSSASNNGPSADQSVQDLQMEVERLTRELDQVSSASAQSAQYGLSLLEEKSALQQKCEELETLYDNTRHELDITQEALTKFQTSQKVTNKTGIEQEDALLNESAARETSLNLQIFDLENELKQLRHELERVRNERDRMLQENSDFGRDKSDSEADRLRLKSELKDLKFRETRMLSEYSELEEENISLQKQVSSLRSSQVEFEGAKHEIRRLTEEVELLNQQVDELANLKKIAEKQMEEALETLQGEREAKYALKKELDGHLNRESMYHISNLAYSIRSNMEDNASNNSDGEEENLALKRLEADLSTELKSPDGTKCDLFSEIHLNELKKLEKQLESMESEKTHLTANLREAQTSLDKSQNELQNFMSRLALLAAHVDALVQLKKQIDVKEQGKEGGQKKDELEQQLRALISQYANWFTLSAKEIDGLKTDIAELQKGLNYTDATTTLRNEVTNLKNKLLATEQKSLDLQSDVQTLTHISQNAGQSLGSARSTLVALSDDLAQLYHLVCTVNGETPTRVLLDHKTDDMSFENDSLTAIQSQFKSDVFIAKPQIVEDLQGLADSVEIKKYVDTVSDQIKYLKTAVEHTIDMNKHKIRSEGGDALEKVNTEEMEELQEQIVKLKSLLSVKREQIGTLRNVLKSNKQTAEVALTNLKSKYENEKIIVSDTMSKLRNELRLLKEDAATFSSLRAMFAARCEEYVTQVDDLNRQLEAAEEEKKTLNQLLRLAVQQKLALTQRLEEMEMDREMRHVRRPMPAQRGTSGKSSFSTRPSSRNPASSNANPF

B1: TLS-2xGCED1 (structured_RNA)
RNA: UUACACCACUUGAGGGUAUUUUUAAAUUAAUUCUUAAAAACUACACCUUAAGAUCACUCU
Kd ([1]; hairpin with 3'-strand bulges): 376 ± 154 nM

B2: TLS-2xGCED1+GCED2 (structured_RNA)
RNA: B1 RNA with U23G, A36C
Kd ([1]; hairpin with 3'-strand bulges): 1510 ± 210 nM

B3: TLS-AUED1/ED2 (structured_RNA)
RNA: B1 RNA with G14A, G15U, U23A, A36U, C46A, C47U
Kd ([1]; hairpin with 3'-strand bulges): 746 ± 91 nM

B4: TLS-CGED1/ED2 (structured_RNA)
RNA: B1 RNA with G14C, G15U, U23C, A36G, C46A, C47G
Kd ([1]; hairpin with 3'-strand bulges): 345 ± 34 nM

B5: TLS-GCED2 (structured_RNA)
RNA: B1 RNA with G14U, G15U, U23G, A36C, C46A, C47A
Kd ([1]; hairpin with 3'-strand bulges): 425 ± 140 nM

B6: TLS-GCED1/ED2 (structured_RNA)
RNA: B1 RNA with G15U, U23G, A36C, C46A
Kd ([1]; hairpin with 3'-strand bulges): 4110 ± 1540 nM

B7: hSL1∆b (structured_RNA)
RNA: UGCGCGUAGACAUUUCACAUCAUUCGCCGGGAUUGGCAAAUGUUGUGAAGUGUUGCAAACAU
Kd ([1]; hairpin): 204 ± 36 nM

B8: TLS∆b (structured_RNA)
RNA: UUACACCACUUGAUUGUAUUUUUAAAUUAAUUCUUAAAAAUACAAUUAAGAUCACUCU
Kd [2]: 2800 ± 510 nM

B9: bcdSLV (MST) (structured_RNA)
RNA: AAAAAUGUUUCUCUUGGGCGUAAUCUCAUACAAUGAUUACCCUUAAAGAUCGAACAUUU
Kd ([1]; hairpin with bulges): 231 ± 64 nM

B10: KSE (structured_RNA)
RNA: AAACCCAAUUGAACAUAUAGUGGAAUUAUUAUUAUCAAUGGGGAAUAUUUAACCC
Kd ([1]; hairpin): 507 ± 93 nM

AAGGGACAAGCGCAAGGUCAUUCGCAAGAGUGGCCUUGCGCUUGUCCC (structured_RNA) [2NUE RNA]
binding result [3]: no binding

B11: TLS-KSE (structured_RNA)
RNA: GUCAAAGCUUACCUUGAUUGUAUUUUUAAAUUAAUUCUUAAAAACUACAAAUUAAGUUGCAAACAUGCGAAUCCUAAACUCGGUUCACAACUUCCCCAAUUGAACAUAUAGUGGAAUUAUUAUUAUCAAUGGGGAAUAUGCUAGC
binding result [4]: binds

B12: GLS (MST) (structured_RNA)
RNA: AAAGUAAUUUUCGUGCUCUCAACAAUUGUCGCCGUCACAGAUUGUUGUUCGAGCCGAAUCUUACU
Kd ([1]; hairpin with bulges): 39 ± 14 nM

B13: hSL2 (structured_RNA)
RNA: AACUUCGUUGGCUUAGUUUCCUGGCUUAUAUCCUGGAAACCCGUCGACGAGG
Kd ([1]; hairpin with bulges): 603 ± 79 nM
